Drawing on US20190284262A1 (Memorial Sloan Kettering, published 2019), this text covers koff, Kd and kon for one molecule.

In general, koff refers to the first-order rate constant of dissociation. The term Kd denotes the constant that tells how readily two partners part at equilibrium. In general, kon refers to the second-order rate constant of association.

Test [1] has as its target T1, EXT017 (Foxp3-7) peptide/HLA-A*02:01 complex, recombinant (human).
T1 construct: The BLI and SPR paragraphs only say 'EXT017 peptide/HLA-A*02:01 complex'; also called EXT017 peptide/HLA-A*02:01 complex; biotinylated single chain Foxp3p/HLA-A0201 complex
Nature of the test: SPR; printed under the head 'ka [1/Ms]': the heads of c3 and c4 are evidently interchanged.

The target of test [2] is T1, EXT017 (Foxp3-7) peptide/HLA-A*02:01 …. Nature of the test: SPR. Background: SPR reads the build-up and loss of mass on a sensor chip optically.
Test [3] has the same target. Nature of the test: SPR; printed under the head 'kd [1/s]': the heads of c3 and c4 are evidently interchanged (0.01222/5.97E+07 = 0.205 nM).

B1: EXT017-32 human IgG1 (antibody, V domains shown)
VH: EVQLVESGGGVVQPGRSLRLSCAASGFTFNNHAMHWVRQAPGKGLEWVAVISFDGDDKFYADSVKGRFTISRDNSRNTLFLQMNNLRPEDTAVYYCSRDPYHFASGSYSYFDYWGQGTLVTVSS
VL: QSVLTQPPSVSVAPGKTARITCGGNNIGSKSVHWYQQKPGQAPVLVIYYDSDRPSGIPERFSGSNSGNTATLTISRVEAGDEADYYCQVWDSSSDHYVFGTGTKVTVLG
notes: Full-length human IgG1 with matching human lambda or kappa light chain constant region; Fc-enhanced (afucosylated); also called EXT017-32 hIgG; EXT017-32-hIgG1
For the molecule B1, the koff in test [1] stood at 0.0122 s⁻¹. For the same molecule, the Kd in test [2] is 0.205 nM. The kon in test [3] was 5.97e+07 M⁻¹ s⁻¹.
